Experimental data published in publication PMC13334617.
Where “and” joins values, the source holds several entries; their conditions need not be identical. Equal values may be shown once.

Experiments:
[1] = target: ACM2 variant of AC fused to GFP (ACM2-GFP), encoded by plasmid pACM2-Gfp (Bordetella pertussis | not stated) (UniProt P0DKX7); assay: two-hybrid
[2] = target: ACM1 variant of AC fused to GFP (ACM1-GFP), encoded by plasmid pACM1-Gfp (Bordetella pertussis | not stated) (UniProt P0DKX7); assay: two-hybrid

B1: CaM fused to the V1K nanobody at its N-terminus, with a C-terminal AviTag (CaM-V1K), encoded by plasmid pK1Cam-V1K (VHH)
VHH: QVQLVESGGALVQPGGSLRLSCAASGFPVNRYSMRWYRQAPGKEREWVAGMSSAGDRSSYEDSVKGRFTISRDDARNTVYLQMNSLKPEDTAVYYCNVNVGFEYWGQGTQVTVSS
- ß gal (Rel. Units) [1]: 74 Rel. Units

B2: CaM fused to the V9A nanobody at its N-terminus and a tetra-cysteine tag at its C-terminus (CaM-V9A) (VHH)
VHH: DVQLQESGGGSVQAGGSLRLSCAASGDTFSSYSMAWFRQAPGKECELVSNILRDGTTTYAGSVKGRFTISRDDAKNTVYLQMVNLKSEDTARYYCAADSGTQLGYVGAVGLSCLDYVMDYWGKGTQVTVSS
- cAMP [2]: > 50 nmol/mg
- ß gal (Rel. Units) [2]: 26 Rel. Units
- cAMP [1]: > 60 nmol/mg
- ß gal (Rel. Units) [1]: 78 Rel. Units

B3: CaM fused to the V9A nanobody at its N-terminus, with a C-terminal AviTag (CaM-V9A), encoded by plas (VHH)
VHH: B2 VHH
- ß gal (Rel. Units) [2]: 4 Rel. Units
- ß gal (Rel. Units) [1]: 57 Rel. Units and 23 Rel. Units
